# According to patent US8026218 (UNIVERSITY OF ARIZONA, dated 2011):
# Where two headings read alike, the source gives them in different places. Bridge positions count the residues as written; N and C are the ends. Square brackets hold non-standard residues; d marks the D form. Primed or numbered codes have the meaning given here. Ends that are not written are not given here. * marks the point of attachment. NH(3,5-(CF3)2-benzyl) = FC(F)(F)c1cc(CN*)cc(C(F)(F)F)c1; OBzl(3,5-(CF3)2) = FC(F)(F)c1cc(CO*)cc(C(F)(F)F)c1; O‑Bzl(CF3)2″ = C-terminal Bzl(CF3)2 ester; Phe(4-F) = N[C@@H](Cc1ccc(F)cc1)C(=O)O; Abu = CC[C@H](N)C(=O)O; Aib = CC(C)(N)C(=O)O
# Key:
# human δ opioid receptor [1] = biological target: T1, human δ opioid receptor (human, UniProt P41143 1-372); test: cell-based or functional assay
# T1 sequence (P41143 whole entry, stated change not applied): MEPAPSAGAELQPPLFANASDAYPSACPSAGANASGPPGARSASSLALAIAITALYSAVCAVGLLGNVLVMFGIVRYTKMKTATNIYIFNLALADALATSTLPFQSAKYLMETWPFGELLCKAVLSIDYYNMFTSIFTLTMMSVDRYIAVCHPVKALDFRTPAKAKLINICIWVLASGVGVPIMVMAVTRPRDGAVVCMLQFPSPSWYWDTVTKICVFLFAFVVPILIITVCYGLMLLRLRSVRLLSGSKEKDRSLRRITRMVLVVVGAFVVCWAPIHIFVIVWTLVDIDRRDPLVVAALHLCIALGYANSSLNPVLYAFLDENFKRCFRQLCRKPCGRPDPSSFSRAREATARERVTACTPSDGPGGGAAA
# rat µ opioid receptor [2] = biological target: T2, rat µ opioid receptor (rat, UniProt P33535 1-398); test: cell-based or functional assay
# T2 sequence (P33535 whole entry): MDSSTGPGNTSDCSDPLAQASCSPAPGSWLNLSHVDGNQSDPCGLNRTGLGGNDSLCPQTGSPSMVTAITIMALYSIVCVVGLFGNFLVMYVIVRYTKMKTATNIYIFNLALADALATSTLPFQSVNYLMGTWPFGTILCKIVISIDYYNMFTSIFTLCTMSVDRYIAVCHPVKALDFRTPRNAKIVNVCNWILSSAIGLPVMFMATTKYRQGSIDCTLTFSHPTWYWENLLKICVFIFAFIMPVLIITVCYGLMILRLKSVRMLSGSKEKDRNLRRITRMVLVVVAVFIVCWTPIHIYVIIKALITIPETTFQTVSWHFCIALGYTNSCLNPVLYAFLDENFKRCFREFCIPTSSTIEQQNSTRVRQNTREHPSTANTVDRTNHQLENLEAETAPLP
# rat µ opioid receptor [3] = biological target: T2, rat µ opioid receptor; test: competition vs [3H]DAMGO, rMOR cell membranes
# rat NK1 receptor [4] = biological target: T3, rat NK1 receptor (rat, UniProt P14600 1-407); test: competition vs [3H]Substance P, rNK1 CHO cell membranes
# T3 construct: whole, on cells; membrane preparations of the transfected cells were used; also called rNK1; rNK-1
# T3 sequence (P14600 whole entry): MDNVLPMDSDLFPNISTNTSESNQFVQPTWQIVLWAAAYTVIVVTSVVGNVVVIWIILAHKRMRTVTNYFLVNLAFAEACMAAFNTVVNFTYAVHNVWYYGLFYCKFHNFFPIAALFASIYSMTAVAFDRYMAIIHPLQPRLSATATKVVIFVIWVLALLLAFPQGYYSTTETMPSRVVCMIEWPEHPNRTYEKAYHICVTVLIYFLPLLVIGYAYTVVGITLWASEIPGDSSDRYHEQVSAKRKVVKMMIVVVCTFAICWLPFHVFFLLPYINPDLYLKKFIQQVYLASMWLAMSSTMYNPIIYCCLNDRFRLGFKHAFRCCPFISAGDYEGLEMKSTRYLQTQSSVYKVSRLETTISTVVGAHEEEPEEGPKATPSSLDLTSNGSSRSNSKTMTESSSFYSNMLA
# human δ opioid receptor [5] = biological target: T1, human δ opioid receptor; test: competition vs [3H]DPDPE, hDOR cell membranes
# rat NK1 receptor [6] = biological target: T3, rat NK1 receptor; test: competition vs [3H]Substance P, rNK1 CHO cell membranes; remark: listed apart in the source
# human δ opioid receptor [7] = biological target: T1, human δ opioid receptor; test: competition vs [3H]DPDPE, hDOR cell membranes; remark: listed apart in the source
# rat NK1 receptor [8] = biological target: T3, rat NK1 receptor; test: competition vs [3H]Substance P, rNK1 CHO cell membranes; remark: listed apart in the source
# human NK1 receptor [9] = biological target: T4, human NK1 receptor (human, UniProt P25103 1-407); test: competition vs [3H]Substance P, hNK1 CHO cell membranes
# T4 construct: whole, on cells; membrane preparations of the transfected cells were used; also called hNK1; human neurokinin-1 receptor
# T4 sequence (P25103 whole entry): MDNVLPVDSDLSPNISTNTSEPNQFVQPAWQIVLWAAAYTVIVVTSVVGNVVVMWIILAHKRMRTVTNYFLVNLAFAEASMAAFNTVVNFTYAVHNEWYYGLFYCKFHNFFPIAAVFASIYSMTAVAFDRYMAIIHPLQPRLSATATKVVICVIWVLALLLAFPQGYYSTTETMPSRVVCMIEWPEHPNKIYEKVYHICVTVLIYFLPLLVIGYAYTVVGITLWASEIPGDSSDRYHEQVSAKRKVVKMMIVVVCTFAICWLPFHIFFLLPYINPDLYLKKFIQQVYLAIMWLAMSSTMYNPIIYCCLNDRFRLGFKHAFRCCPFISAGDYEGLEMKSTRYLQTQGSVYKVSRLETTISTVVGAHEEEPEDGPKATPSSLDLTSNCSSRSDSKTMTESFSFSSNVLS
# human δ opioid receptor [10] = biological target: T1, human δ opioid receptor; test: cell-based or functional assay; remark: listed apart in the source
# rat µ opioid receptor [11] = biological target: T2, rat µ opioid receptor; test: cell-based or functional assay; remark: listed apart in the source
# rat µ opioid receptor [12] = biological target: T2, rat µ opioid receptor; test: competition vs [3H]DAMGO, rMOR cell membranes; remark: listed apart in the source
# human NK1 receptor [13] = biological target: T4, human NK1 receptor; test: competition vs [3H]Substance P, hNK1 CHO cell membranes; remark: listed apart in the source
# human NK1 receptor [14] = biological target: T4, human NK1 receptor; test: as above; remark: listed apart in the source
# [15] = biological target: T5, µ opioid receptor of the guinea pig isolated ileum (guinea pig, UniProt P97266 1-98); test: cell-based or functional assay
# T5 sequence (P97266 whole entry): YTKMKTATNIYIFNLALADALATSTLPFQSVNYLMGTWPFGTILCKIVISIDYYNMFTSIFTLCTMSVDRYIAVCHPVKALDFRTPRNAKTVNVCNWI
# guinea pig NK1 receptor [16] = biological target: T6, guinea pig NK1 receptor (guinea pig, UniProt P30547 1-407); test: cell-based or functional assay
# T6 sequence (P30547 whole entry): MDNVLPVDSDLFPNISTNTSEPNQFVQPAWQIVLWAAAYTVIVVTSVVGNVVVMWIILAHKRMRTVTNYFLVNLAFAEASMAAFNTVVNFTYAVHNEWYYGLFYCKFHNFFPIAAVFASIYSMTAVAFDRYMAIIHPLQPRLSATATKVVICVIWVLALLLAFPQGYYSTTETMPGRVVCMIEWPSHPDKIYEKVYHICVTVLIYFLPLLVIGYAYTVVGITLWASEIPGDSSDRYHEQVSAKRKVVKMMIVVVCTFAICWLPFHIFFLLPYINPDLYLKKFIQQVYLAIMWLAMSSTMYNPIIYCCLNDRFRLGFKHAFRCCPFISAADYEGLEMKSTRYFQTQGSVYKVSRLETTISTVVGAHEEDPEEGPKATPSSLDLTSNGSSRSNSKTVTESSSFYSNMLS
# rat NK1 receptor [17] = biological target: T7, rat NK1 receptor (rat, UniProt P14600 1-407); test: competition vs [3H]substance P, membranes of rNK1-transfected CHO cells
# T7 construct: whole, on cells; Assayed as membrane preparations of transfected CHO cells; also called rNK1; rNK-1
# T7 sequence (P14600 whole entry): as the sequence (P14600 whole entry) above
# human δ opioid receptor [18] = biological target: T8, human δ opioid receptor (human, UniProt P41143 1-372); test: cell-based or functional assay; remark: listed apart in the source
# T8 sequence (P41143 whole entry, stated change not applied): as the sequence (P41143 whole entry, stated change not applied) above
# human δ opioid receptor [19] = biological target: T8, human δ opioid receptor; test: competition vs [3H]DPDPE, membranes of hDOR-transfected HN9.10 cells
# human δ opioid receptor [20] = biological target: T1, human δ opioid receptor; test: competition vs [3H]DPDPE, hDOR cell membranes; remark: listed apart in the source
# [21] = biological target: T5, µ opioid receptor of the guinea pig …; test: cell-based or functional assay; remark: listed apart in the source
# guinea pig NK1 receptor [22] = biological target: T6, guinea pig NK1 receptor; test: cell-based or functional assay; remark: listed apart in the source
# human δ opioid receptor [23] = biological target: T1, human δ opioid receptor; test: cell-based or functional assay; remark: listed apart in the source
binder,measurement,setting,value
"Y[dC]GFCPLW-{NH(3,5-(CF3)2-benzyl)} (disulfide 2-5, cyclic; also called TY039; [D-Cys2, Cys5]TY027) [Tyr[DCysGlyPheCys]ProLeuTrpNHBn(CF3)2]",[35S]GTPγS binding EC50,human δ opioid receptor [1],0.9 nM
same,[35S]GTPγS binding Emax,human δ opioid receptor [1],37%
same,[35S]GTPγS binding LogEC50,human δ opioid receptor [1],-9
same,[35S]GTPγS binding EC50,rat µ opioid receptor [2],118 nM
same,[35S]GTPγS binding Emax,rat µ opioid receptor [2],17%
same,[35S]GTPγS binding LogEC50,rat µ opioid receptor [2],-6.9
same,Ki,rat µ opioid receptor [3],200 nM
same,LogIC50,rat µ opioid receptor [3],-6.4
same,LogIC50,rat NK1 receptor [4],-5.8
same,Ki,human δ opioid receptor [5],11 nM
same,LogIC50,human δ opioid receptor [5],-7.6
"Y[dA]GFPLW-{OBzl(3,5-(CF3)2)} (also called TY001) [TyrDAlaGlyPheProLeuTrpOBn(CF3)2]",IC50,rat NK1 receptor [6],21.7 nM
Y[dA]GF[Aib]W-{O‑Bzl(CF3)2″} (also called NP41) [Tyr-DAla-Gly-Phe-Aib-Trp-O-Bzl(CF3)2],Ki,human δ opioid receptor [7],24.2 nM
same,Ki,rat NK1 receptor [8],3.4 nM
same,Ki,human NK1 receptor [9],0.008 nM
same,GTP EMax,human δ opioid receptor [10],65
same,GTP EMax,rat µ opioid receptor [11],36
same,Ki,rat µ opioid receptor [12],13.3 nM
Y[dA]GF[Abu]W-{O‑Bzl(CF3)2} (also called NP33) [Tyr-DAla-Gly-Phe-α-Abu-Trp-O-Bzl(CF3)2],Ki,human δ opioid receptor [7],1.6 nM
same,Ki,rat NK1 receptor [8],1.2 nM
same,Ki,human NK1 receptor [9],0.12 nM
same,GTP EMax,human δ opioid receptor [10],43
same,GTP EMax,rat µ opioid receptor [11],32
same,Ki,rat µ opioid receptor [12],11.4 nM
"Y[dA]GFW-{OBzl(3,5-(CF3)2)} (also called NP36) [Tyr-D-Ala-Gly-Phe-Trp-O-3′,5′(CF3)2-Bzl]",Ki,human NK1 receptor [13],0.0005 nM
"YAGFXPLW (Dmt at 1 (written Y); D-Ala at 2; Nle at 5 (written X); C-terminal NH-3-Bn(CF3) amide, also called TY053) [DmtDAlaGlyPheNleProLeuTrpNHBn-3-(CF3)]",Ki,human NK1 receptor [14],1.04 nM
"Y[dC]GF[dC]PLW-{NH(3,5-(CF3)2-benzyl)} (disulfide 2-5, cyclic; also called TY037; [D-Cys2, D-Cys5]TY027) [Tyr[DCysGlyPheDCys]ProLeuTrpNHBn(CF3)2]",[35S]GTPγS binding EC50,human δ opioid receptor [1],14 nM
same,[35S]GTPγS binding Emax,human δ opioid receptor [1],22%
same,[35S]GTPγS binding LogEC50,human δ opioid receptor [1],-7.9
same,[35S]GTPγS binding EC50,rat µ opioid receptor [2],53 nM
same,[35S]GTPγS binding Emax,rat µ opioid receptor [2],12%
same,[35S]GTPγS binding LogEC50,rat µ opioid receptor [2],-7.3
same,GPI (µ) IC50,[15],280 nM
same,GPI Substance P antagonist Ke,guinea pig NK1 receptor [16],4.7 nM
same,Ki,rat µ opioid receptor [3],52 nM
same,LogIC50,rat µ opioid receptor [3],-6.9
same,LogIC50,rat NK1 receptor [4],-6.9
same,Ki,human δ opioid receptor [5],7.8 nM
same,LogIC50,human δ opioid receptor [5],-7.8
"H-Y[dA]GFMPLW-{NH(3,5-(CF3)2-benzyl)} (also: TFA salt, TFA salt; also called TY027; TY27) [H-Tyr-D-Ala-Gly-Phe-Met-Pro-Leu-Trp-NH-3,5-Bzl(CF3)2]",Ki,rat NK1 receptor [17],7.3 nM
same,LogIC50,rat NK1 receptor [17],-7.6
same,[35S]GTPγS binding EC50,human δ opioid receptor [18],8.6 nM
same,[35S]GTPγS binding Emax,human δ opioid receptor [18],58%
same,[35S]GTPγS binding LogEC50,human δ opioid receptor [18],-8.1
same,LogIC50,human δ opioid receptor [19],-8.8
"Y[dA]G[Phe(4-F)]-{O‑3,5‑Bzl(CF3)2} (also called NP62) [Tyr-D-Ala-Gly-pFPhe-O-3′,5′(CF3)2-Bzl]",Ki,human NK1 receptor [13],0.2 nM
"YAGFXPLW (D-Ala at 2; Nle at 5 (written X); C-terminal O-3,5-Bzl(CF3)2 ester, also called TY018) [TyrDAlaGlyPheNleProLeuTrpOBn(CF3)2]",Ki,human δ opioid receptor [20],1.8 nM
same,GPI/LMMP IC50,[21],372 nM
same,GPI/LMMP SP antagonist Ke,guinea pig NK1 receptor [22],7.9 nM
same,GTP binding EC50,human δ opioid receptor [23],4 nM
same,GTP binding Emax,human δ opioid receptor [23],131%
"YAGFXPLW (Dmt at 1 (written Y); D-Ala at 2; Nle at 5 (written X); C-terminal NH-3,5-Bzl(CF3)2 amide, also called TY050) [DmtDAlaGlyPheNleProLeuTrpNHBn(CF3)2]",Ki,human NK1 receptor [14],0.075 nM
"Y[dA]GFXW-{O‑Bzl(CF3)2} (not fully specified (residue 5); printed as Tyr-DAla-Gly-Phe-γ-Abu-Trp-O-Bzl(CF3)2, also called NP34) [Tyr-DAla-Gly-Phe-γ-Abu-Trp-O-Bzl(CF3)2]",Ki,human δ opioid receptor [7],25.4 nM
same,Ki,rat NK1 receptor [8],7.4 nM
same,Ki,human NK1 receptor [9],0.001 nM
same,GTP EMax,human δ opioid receptor [10],40
same,GTP EMax,rat µ opioid receptor [11],27
same,Ki,rat µ opioid receptor [12],2.2 nM
